Assay results as given in US20250000991A1, “NECTIN-4 ANTIBODIES AND ANTIBODY-DRUG CONJUGATES” (Eli Lilly and Company, priority 2023, published 2025).
“And” between values parts separate entries of the source, which are not always exact repeats. Identical values can stand only once.

What was measured:
cyno Nectin-4 = assay: Surface plasmon resonance (Biacore 8K+) binding of nectin-4 ADCs to cyno Nectin-4; conditions: cyno Nectin-4, 37° C., ADC Formula XI DAR 8, n=1
Experimental: (§1) An anti-human Fc sensor surface was prepared by amine-coupling of goat anti-human IgG Fc (Southern Biotech Cat. No. 2014-01, Birmingham, AL) to a Biacore Series S CM4 (Cytiva Cat. No. BR-100534) sensor surface at 25° C. For immobilization, a running buffer of 10 mM HEPES, 150 mM NaCl, 0.05% Tween-20, pH 7.4 was used. Flow cells 1 & 2 of all 8 channels were activated with a 1:1 (v/v) mixture of 400 mM 1-Ethyl-3-(3-dimethylaminopropyl) carbodiimide hydrochloride (EDC) and […] N-Hydroxysuccinimide (NHS) at a flow rate of 10 uL/min for 7 minutes. Then the anti-human IgG Fc capture reagent was coupled to the sensor surface (diluted to 50 μg/mL in 10 mM Acetate pH 4.5 buffer) by injecting it in all flow cells and channels at a flow rate of 10 uL/min for 7 minutes. Remaining active groups were blocked by injecting 100 mM ethylenediamine (in 200 mM Borate buffer, pH 8.5) in all flow cells and channels at a flow rate of 10 uL/min for 7 minutes. All channels and flow cells were then preconditioned using three consecutive 1-minute injections of 75 mM phosphoric acid at 10 uL/min.
(§2) In each analysis cycle, a different ADC was captured on flow cell 2 of each channel by injecting it at 5 μg/mL and 10 uL/min. After capture, the same analyte was injected on flow cells 1 and 2 in all 8 channels for 2 minutes at 30 uL/n and dissociation was monitored for 10 minutes. After dissociation, all surfaces were regenerated with three 1-minute injections of 5 mM phosphoric acid at 10 uL/min. ADC capture and analyte cycles were repeated to obtain analyte binding of each ADC at concentrations of 0, 2.5, 7.4, 22, 67, 200 and 600 nM nectin-4.
(§3) Sensorgram data were fit globally with the default 1:1 binding model in Biacore Insight Evaluation Software v3.0.12.15655.

[1] = system: T24 mScarlet clone 5 Nectin-4 negative cells; assay: Bystander killing of T24-mScarlet clone 5 cells co-cultured with T24-human nectin4 clone108 (imaging); format: cell-based; conditions: T24-mScarlet clone5 : T24-human nectin4 clone108 9:1, 5 days, ADC Formula XI DAR 8; read-out: IC50 of bystander effect
Experimental: T24 cell line was engineered to express mScarlet and clonally selected to test in bystander assay. T24-mScarlet clone5 and T24-human nectin4 clone108 were mixed and seeded at a total of 1000 cells/well/100 ul with a ratio of 9:1 in culture medium (McCoy's 5A+1× GlutaMax+10% Heat Inactivated Fetal Bovine Serum+400 μg/ml G418) in flat clear bottom 96-well plates. T24 mScarlet clone 5 cells were negative for nectin-4 expression. Plates were incubated at 37° C. with 5% CO2 overnight. Next day, ADCs were added at final working concentration from 50 nM, 1:4 serially diluted in culture medium. Plates were covered with Breathe-Easy® sealing membrane, placed in BioSpa and scanned in Cytation5 every day for 5 days.
Images of T24-mScarlet cells were captured and analyzed by Cytation5 with Gen5 Image Prime 3.11. Percentage of T24-mScarlet cell killing was calculated by decreased Integrated Intensity (area×mean intensity), normalized to zero hour and no treatment. Data was graphed and analyzed using GraphPad Prism version 9.5.1. IC50 was determined via log(inhibitor) vs. response-variable slope (four parameters) curve fitting.

[2] = system: UMUC3-Luc-GFP + UMUC3-hNectin4 clone F7; assay: Bystander killing of UMUC3-Luc-GFP cells co-cultured with UMUC3-hNectin4 clone F7 (ONE-Glo); format: cell-based, human; conditions: UMUC3-hNectin-4 cloneF7/UMUC3-Luciferase-GFP 4:1, 5 days
Experimental: UMUC3 cell line was engineered to express human Nectin4 and two clonal populations with different levels of expression were selected. In flat white clear-bottom 96-well plates, UMUC3-hNectin4 clone F7/UMUC3-Luc-GFP cells were mixed and seeded at a total of 1500 cells/well/100 ul with a ratio of 4:1 in assay medium (MEM+1× GlutaMax+10% Heat Inactivated Fetal Bovine Serum+1 mM sodium pyruvate). UMUC3-hNectin4 clone E3/UMUC3-Luc-GFP cells were mixed and seeded at a total of 2100 cells/well/100 ul with a ratio of 6:1 in assay medium. UMUC3-Luc-GFP cells were negative for nectin-4 expression. Plates were incubated at 37° C. with 5% CO2 overnight. […] Plates were read after 5-days treatment using ONE-GloTM Luciferase Assay System. […] Luminescence was read in the SpectraMax M5e. […] Percentage of UMUC3-Luc-GFP killing was calculated against no treatment as 0%. Data was graphed and analyzed using Graphpad Prism version 9.5.1. IC50 was determined via log(inhibitor) vs. response (three parameters) curve fitting for bystander activity and log(inhibitor) vs. response (four parameters) for free payload cytotoxicity. […] In experiments run as essentially described herein, the bystander effects of four nectin-4 ADCs described herein and enfortumab vedotin were evaluated using the UMUC3-hNectin-4 cloneF7/UMUC3-Luciferase-GFP cell pair. […]

rat Nectin-4 = assay: Surface plasmon resonance (Biacore 8K+) binding of nectin-4 ADCs to rat Nectin-4; conditions: rat Nectin-4, 37° C., ADC Formula XI DAR 8, n=1
Experimental: as §1, §2, §3

human Nectin-4 = molecular target: T1, human Nectin-4 (Homo sapiens, UniProt Q96NY8); assay: Surface plasmon resonance (Biacore 8K+) binding of nectin-4 ADCs to human Nectin-4; conditions: human Nectin-4, 37° C., ADC Formula XI DAR 8; n=3 mean ± SD, n=2 replicate values
T1 construct: His tag; purchased Acro Biosystems NE4-H52H3
T1 sequence (Q96NY8 32-510): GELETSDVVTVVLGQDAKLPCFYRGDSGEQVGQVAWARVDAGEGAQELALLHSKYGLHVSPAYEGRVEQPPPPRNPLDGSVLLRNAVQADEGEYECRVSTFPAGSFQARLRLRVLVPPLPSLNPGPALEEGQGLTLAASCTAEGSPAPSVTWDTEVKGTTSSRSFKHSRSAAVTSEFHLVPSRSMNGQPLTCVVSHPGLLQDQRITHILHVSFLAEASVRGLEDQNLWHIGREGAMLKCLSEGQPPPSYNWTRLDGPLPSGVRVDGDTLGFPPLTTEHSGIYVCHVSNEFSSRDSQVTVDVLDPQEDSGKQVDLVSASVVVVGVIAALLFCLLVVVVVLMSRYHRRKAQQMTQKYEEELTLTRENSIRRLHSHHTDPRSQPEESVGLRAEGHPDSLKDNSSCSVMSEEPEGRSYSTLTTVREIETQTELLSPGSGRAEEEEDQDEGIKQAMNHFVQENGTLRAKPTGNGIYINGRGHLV
Experimental: as §1, §2, §3

B1: Ab1a (conjugate)
heavy: QVQLVQSGAQVKKPGASVKVSCKASGYTFTGYYIHWVRQAPGQGLEWMGWINPNSGGTNYAQKFQGRVTMTRDTSISTAYMELSRLRSDDTAVYFCAREDWDFDYWGQGTLVTVSSASTKGPSVFPLAPSSKSTSGGTAALGCLVKDYFPEPVTVSWNSGALTSGVHTFPAVLQSSGLYSLSSVVTVPSSSLGTQTYICNVNHKPSNTKVDKRVEPKSCDKTHTCPPCPAPEAAGGPSVFLFPPKPKDTLMISRTPEVTCVVVSVSHEDPEVKFNWYVDGVEVHNAKTKPREEQYNSTYRVVSVLTVLHQDWLNGKEYKCKVSNKALPAPIEKTISKAKGQPREPQVYTLPPSREEMTKNQVSLTCLVKGFYPSDIAVEWESNGQPENNYKTTPPVLDSDGSFFLYSKLTVDKSRWQQGNVFSCSVMHEALHNHYTQKSLSLSPGK
light: EIVLTQSPGTLSLSPGERATLSCRTSQSVSSSYLAWYQQKPGQAPRLLIYGASNRATDIPDRFSGSGSGTDFTLTINRLEPEDFAVYYCQQYGSSPITFGQGTRLEIKRTVAAPSVFIFPPSDEQLKSGTASVVCLLNNFYPREAKVQWKVDNALQSGNSQESVTEQDSKDSTYSLSSTLTLSKADYEKHKVYACEVTHQGLSSPVTKSFNRGEC
- ka (cyno Nectin-4): 310000 M⁻¹ s⁻¹
- kd (cyno Nectin-4): 0.026 s⁻¹
- IC50 [1]: 0.041 nM
- Bystander effect (in words) [2]: potent bystander effects
- ka (rat Nectin-4): 252000 M⁻¹ s⁻¹
- kd (rat Nectin-4): 0.0453 s⁻¹
- ka (human Nectin-4): 2.83 × 10^5, 1/Ms and 4.24 × 10^5 1/Ms
- kd (human Nectin-4): 4.02 × 10^−2, 1/s and 3.08 × 10^−2 1/s
